Numbering of substitutions follows the chain as printed.
B1: v15193, humanized bispecific anti-CD3-CD19 antigen-binding construct (humanized HD37 Fab / humanized OKT3 scFv hVH1/hVL2) (bispecific antibody, human IgG1, kappa, L234A L235A)
heavy: not shown
chain: QVQLVQSGGGVVQPGRSLRLSCKASGYTFTRYTMHWVRQAPGKGLEWIGYINPSRGYTNYNQKVKGRFTISTDKSKNTAYLQMDSLRAEDTGVYFCARYYDDHYSLDYWGQGTLVTVSSVEGGSGGSGGSGGSGGVDDIQMTQSPSSLSASVGDRVTITCSASSSVSYMNWYQQKPGKAPKRLIYDTSKLASGVPSRFSGSGSGTDYTLTISSLQPEDAATYYCQQWSSNPFTFGQGTKLEIKAAEPKSSDKTHTCPPCPAPEAAGGPSVFLFPPKPKDTLMISRTPEVTCVVVSVSHEDPEVKFNWYVDGVEVHNAKTKPREEQYNSTYRVVSVLTVLHQDWLNGKEYKCKVSNKALPAPIEKTISKAKGQPREPQVYVLPPSRDELTKNQVSLLCLVKGFYPSDIAVEWESNGQPENNYLTWPPVLDSDGSFFLYSKLTVDKSRWQQGNVFSCSVMHEALHNHYTQKSLSLSPG
light: DIQLTQSPSSLSASVGDRATITCRASQSVDYEGDSYLNWYQQKPGKAPKLLIYDASNLVSGIPSRFSGSGSGTDFTLTISSVQPEDAATYYCQQSTEDPWTFGCGTKLEIKRTVAAPSVFIFPPSDEQLKSGTASVVCLLNNFYPREAKVQWKVDNALQSGNSQESVTEQDSKDSTYSLSSTLTLSKADYEKHKVYACEVTHQGLSSPVTKSFNRGEC
notes: also called variant 15193
B2: v15192, humanized bispecific anti-CD3-CD19 antigen-binding construct (humanized HD37 Fab / humanized OKT3 scFv hVH1/hVL1) (bispecific antibody, human IgG1, kappa, L234A L235A)
heavy: not shown
chain: B1 chain with L183W
light: B1 light
notes: also called variant 15192
B3: v15194, humanized bispecific anti-CD3-CD19 antigen-binding construct (humanized HD37 Fab / humanized OKT3 scFv hVH2/hVL1) (bispecific antibody, human IgG1, kappa, L234A L235A)
heavy: not shown
chain: B1 chain with K74N, L183W
light: B1 light
notes: also called variant 15194
B4: v15195, humanized bispecific anti-CD3-CD19 antigen-binding construct (humanized HD37 Fab / humanized OKT3 scFv hVH2/hVL2) (bispecific antibody, human IgG1, kappa, L234A L235A)
heavy: not shown
chain: B1 chain with K74N
light: B1 light
notes: Unconjugated construct as used in SPR and whole cell FACS; also called variant v15195

Assays:
[1] = biological target: T1, Recombinant CD3epsilon/delta Fc fusion protein (Sino Biological) (UniProt P07766 23-126; P04234 22-105); assay: SPR, BioRad ProteOn XPR36, 25 C, anti-Fc capture chip, Equilibrium Fit model, mean of three runs
T1 construct: Bought reagent; also called recombinant CD3 fusion protein; CD3 antigen; not shown: Fc part of the bought fusion protein; not described
T1 sequence (P07766 23-126, stated change not applied, chain 1 of 2): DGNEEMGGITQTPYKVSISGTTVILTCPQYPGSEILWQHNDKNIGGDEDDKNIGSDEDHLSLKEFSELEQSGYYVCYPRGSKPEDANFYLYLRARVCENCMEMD
T1 sequence (P04234 22-105, stated change not applied, chain 2 of 2): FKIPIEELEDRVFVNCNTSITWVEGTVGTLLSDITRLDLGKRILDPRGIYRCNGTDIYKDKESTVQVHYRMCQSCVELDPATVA

[2] = biological target: T1, Recombinant CD3epsilon/delta Fc fusion …; assay: SPR (summary of Example 6)
[3] = biological target: T2, CD3 on human CD3+ Jurkat T cells (human, UniProt P07766 23-207); assay: whole cell FACS binding on Jurkat cells, apparent affinity
T2 construct: whole, on cells; CD3 is a complex of several chains on the cell; also called CD3 epsilon; CD3e
T2 sequence (P07766 23-207): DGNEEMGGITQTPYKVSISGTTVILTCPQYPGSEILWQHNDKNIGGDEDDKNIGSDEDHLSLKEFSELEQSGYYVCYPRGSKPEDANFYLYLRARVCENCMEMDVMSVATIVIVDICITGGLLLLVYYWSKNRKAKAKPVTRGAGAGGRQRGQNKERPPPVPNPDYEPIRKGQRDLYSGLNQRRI

Binder | Kd [1] [nM] | binding result [2] | Kd [3] [nM]
B1 | 370 |  | 
B2 |  | binds | 
B3 | 349 |  | 
B4 | 427 |  | 44.7

Reference: US20180193477A1 (Zymeworks, published 2018)
